According to article PMC4777857:

What was measured:
[1] = molecular target: C-terminal globular region of the collagen VI α1 chain; experiment: SAXS; C-terminal regions in solution (α1, 4.3 mg/ml; α2, 4 mg/ml; α4, 3.5 mg/ml; α6, 3.5 mg/ml) after Superdex200 in 10 mM phosphate buffer, 400 mM NaCl, pH 7.4; EMBL-P12 beamline, PETRAIII; molecular weight from the volume of correlation
[2] = molecular target: C-terminal globular region of the collagen VI α2 chain; experiment: as above
[3] = molecular target: C-terminal globular region of the collagen VI α4 chain; experiment: as above
[4] = molecular target: monomeric heterotrimeric collagen VI molecule composed of one α1 chain, one α2 chain and one α3 chain (mouse (endogenous in tissue)) (UniProt Q04857); experiment: immunoelectron microscopy after negative staining; native collagen VI tetramers and microfibrils extracted from E14.5 mouse lungs by collagenase digestion; double labelling for 30 min at 37 °C with colloidal gold-labeled antibodies specific for the N-terminal regions of the long α chains
[5] = molecular target: monomeric heterotrimeric collagen VI molecule composed of one α1 chain, one α2 chain and one α4 chain (mouse (endogenous in tissue)) (UniProt Q04857); experiment: as above
[6] = molecular target: monomeric heterotrimeric collagen VI molecule composed of one α1 chain, one α2 chain and one α5 chain (mouse (endogenous in E14.5 lung)) (UniProt Q04857); experiment: as above
[7] = molecular target: monomeric heterotrimeric collagen VI molecule composed of one α1 chain, one α2 chain and one α6 chain (mouse (endogenous in tissue)) (UniProt Q04857); experiment: as above

With “C-terminal globular region of the collagen VI α1 chain (domain or fragment)” the stoichiometry N [1] was 2.

“C-terminal globular region of the collagen VI α2 chain (domain or fragment)” showed a stoichiometry N [2] of 2.

Work on “C-terminal globular region of the collagen VI α4 chain (domain or fragment)” yielded a stoichiometry N [3] of 2.

“monomeric heterotrimeric collagen VI molecule composed of one α1 chain, one α2 chain and one α3 chain (from UniProt Q04857 20-1025; Q02788 26-1034) (complex)” was tested, and the stoichiometry N [4] was 4.

Work on “monomeric heterotrimeric collagen VI molecule composed of one α1 chain, one α2 chain and one α4 chain, Q04857 20-1025; Q02788 26-1034; A2AX52 23-2309” yielded a stoichiometry N [5] of 4.

“monomeric heterotrimeric collagen VI molecule composed of one α1 chain, one α2 chain and one α5 chain, Q04857 20-1025; Q02788 26-1034; A6H584 19-2640” gave a stoichiometry N [6] of 4.

With “monomeric heterotrimeric collagen VI molecule composed of one α1 chain, one α2 chain and one α6 chain, Q04857 20-1025; Q02788 26-1034; Q8C6K9 19-2265” the stoichiometry N [7] was 4.
